Measured values reported in US20250367313A1 (MULTITUDE, published 2025).
Changes are numbered by the printed parent chain.

B1: CL070349 (antibody, V domains shown)
VH: DVQLQESGPGLVKPSQSLSLTCSVTGYSITSGFYWNWIRQLPGNKLEWLGYINFGGTNNYNPSLKIRGSITRDTSKNQFFLKLNSVTTEDTATYYCARGGNDGGFTYWGQGTLVTVSA
VL: ENVLTQSPAIVAASLGQKVTMTCRASSSVSSTYFHWYQQKSGASPKPLLHRTSNLASGVPARFSGSGSGTSYSLTISSVEAEDDATYYCHQWSGYPYTFGGGTKLEIK
notes: also called anti-MUC18 antibody CL070349
B2: CL070333 (antibody, V domains shown)
VH: QVQLQQSGPELVKPGTSVKISCKASGFTFTGYYLHWLKQRPGQGLEWIGWIYPGNVNTEFNEKFKGQATLTADKSSSTAYMQLSSLTSEDSAVYFCARSGYFASSYEFAYWGQGTLVTVSA
VL: DIQMTQSPASLSASVGETVTITCRASENIYSYLAWYQQKQGKSPQLLVYNAKTLAEGVPSRFSVSGSGTHFSLKINSLQPEDFGSYYCQHHYGTPLTFGAGTKLELK
notes: also called anti-MUC18 antibody CL070333
B3: CL070370 (antibody, V domains shown)
VH: QIQLVQSGPELKKPGETVKISCKTSGYTFTDYSMHWVKQAPRKGLKWMGWINTETGEPTYADDFKGRFAFSLETSASTAYLQINNLRNEDTATYFCVSYDYDAVSYWGQGTLVTVSA
VL: DIVMTQSHKFMSTSVGDRVNITCKASQYVGAAVAWYQQKPGQSPKLLIYWASTRHTGVPDRFTGSGSGTDFTLTINNVQSEDLADYFCQQYGNYRTFGGGTKLEIK
notes: also called anti-MUC18 antibody CL070370
B4: CL070324 (antibody, V domains shown)
VH: EVLLQQSGPELVKPGASVKIPCKASGYTFTDYNMDWVKQSHGKSLEWIGDINPNNGATLYNQNFRGKATLTVDKSSSTAYMELRSLTSEDTAVYYCTRSGYDDYYALDYWGQGTSVTVSS
VL: QTVLTQSPAIMSASLGEEITLTCSASSSVGYMHWYQQKSGTSPKLLIYSTSNLASGVPSRFSGRGSGTFYSLTISTVEAEDAADYYCHQWSNYPSTFGTGTKLELK
notes: also called anti-MUC18 antibody CL070324
B5: CL070341 (antibody, V domains shown)
VH: EVQLVESGGDLVRPGGSLKLSCAASGFTFSTYGMSWVRQSPDKRLEWVATINSRASYTYYPDSVKGRFTISRDNAKNTLYLQMSSLKSEDTGLYFCARHRRDWDSYYAMDYWGQGTSVTVSS
VL: NIMLTQSPSSLAVSTGDKVTMNCKSSQSVLYNSNQKNYLAWYQQKPGQSPTLLIYWASTSESGVPDRFTGSGSGTDFTLTISSVQAEDLAVYYCHQYLSSWTFGGGTKLEIK
notes: also called anti-MUC18 antibody CL070341
B6: CL070350 (antibody, V domains shown)
VH: AVQLVESGGDLLRPGGSLKLSCVASGFTFNNYGMSWVRQTPDKRLEWVATINRGGSYTYYTDSVKGRFTISRDNAKKTLYLQMSSLKSEDTAMYYCARHRRDWDSYYAMDYWGQGTSVTVSS
VL: B5 VL with L4M, T15A, T20A, N22S, Q27R, Q44L, T51K, S60R, L109V
notes: also called anti-MUC18 antibody CL070350
B7: CL070336 (antibody, V domains shown)
VH: DVQLQESGPDLVKPYQSLSLTCTVTGYSITSGYSWHWIRQFPGNKLEWLGYMHYSATPNYNPSLKSRISITRDTSKNQFFLQLNSVTTEDTATYYCSRSLNWDVLDYWGQGTTLIVSS
VL: DIVLTQSPAYLPVSLGQRATISCRASKSVRTSGYNYLHWYQQKPGQPPKLLIYLASNPESGVPGRFSGSGSGTDFTLNIHPVEEEDSATYYCQHSREFPFTFGGGTQLEIK
notes: also called anti-MUC18 antibody CL070336
B8: CL070335 (antibody, V domains shown)
VH: B7 VH with Y15S, L49M, M52I, A56T, P58T, N84S, Y95F
VL: B7 VL with N35S, P58L, G64D, S87A, S95T, Q107K
notes: also called anti-MUC18 antibody CL070335
B9: J253-vc-MMAE (antibody, V domains shown)
VH: QVQLQQSGAELVKPGASVKLSCKASGYTFTSYDINWVRQRPEQGLEWIGWIFPGDGSTDYNEKFKGKATLTTDKSSSTAYMQLSRLTSEDSAVYFCARYHFFDNWGQGTTLTVSS
VL: DIVITQDELSNPVTSGESVSISCRSSKSLLYKDGKTYLSWFLQRPGQSPQLLIYLMSTRASGVSDRFSGSGSGTDFTLEISRVKAEDVGVYYCQQLVEYPYTFGGGTKLEIK
modifications: maleimidocaproyl-Val-Cit-PAB-MMAE coupled to the antibody by a thiol-based reaction; sites and drug load not stated
B10: J253 (antibody, V domains shown)
VH: B9 VH
VL: B9 VL
notes: also called anti-MUC18 antibody (J253)

Key:
[1] = biological target: T1, recombinant MUC18 protein (rProtein) (Homo sapiens (Human), UniProt P43121 24-559); assay: ELISA titration, antibody with varying concentrations of recombinant MUC18 protein
T1 sequence: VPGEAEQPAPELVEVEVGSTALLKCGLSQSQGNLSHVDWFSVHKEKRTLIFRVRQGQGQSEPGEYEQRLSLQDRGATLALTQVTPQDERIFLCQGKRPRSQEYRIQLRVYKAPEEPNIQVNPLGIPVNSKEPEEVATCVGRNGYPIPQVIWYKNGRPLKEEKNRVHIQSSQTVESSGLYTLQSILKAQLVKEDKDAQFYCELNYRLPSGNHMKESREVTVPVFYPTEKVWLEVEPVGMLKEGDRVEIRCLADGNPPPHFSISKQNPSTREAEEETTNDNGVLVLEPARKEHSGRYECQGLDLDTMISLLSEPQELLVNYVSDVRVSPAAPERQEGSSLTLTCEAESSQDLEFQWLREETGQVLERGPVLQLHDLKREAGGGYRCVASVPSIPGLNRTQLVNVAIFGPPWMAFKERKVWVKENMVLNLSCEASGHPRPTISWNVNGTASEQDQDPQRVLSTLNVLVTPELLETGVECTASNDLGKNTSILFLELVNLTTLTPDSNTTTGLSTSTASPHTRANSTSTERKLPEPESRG
Protocol: Antibodies were incubated with varying concentrations of recombinant MUC18 protein (rProtein).

[2] = biological target: T2, human MUC18 (human, UniProt P43121 24-646); assay: cell-based or functional assay
T2 sequence: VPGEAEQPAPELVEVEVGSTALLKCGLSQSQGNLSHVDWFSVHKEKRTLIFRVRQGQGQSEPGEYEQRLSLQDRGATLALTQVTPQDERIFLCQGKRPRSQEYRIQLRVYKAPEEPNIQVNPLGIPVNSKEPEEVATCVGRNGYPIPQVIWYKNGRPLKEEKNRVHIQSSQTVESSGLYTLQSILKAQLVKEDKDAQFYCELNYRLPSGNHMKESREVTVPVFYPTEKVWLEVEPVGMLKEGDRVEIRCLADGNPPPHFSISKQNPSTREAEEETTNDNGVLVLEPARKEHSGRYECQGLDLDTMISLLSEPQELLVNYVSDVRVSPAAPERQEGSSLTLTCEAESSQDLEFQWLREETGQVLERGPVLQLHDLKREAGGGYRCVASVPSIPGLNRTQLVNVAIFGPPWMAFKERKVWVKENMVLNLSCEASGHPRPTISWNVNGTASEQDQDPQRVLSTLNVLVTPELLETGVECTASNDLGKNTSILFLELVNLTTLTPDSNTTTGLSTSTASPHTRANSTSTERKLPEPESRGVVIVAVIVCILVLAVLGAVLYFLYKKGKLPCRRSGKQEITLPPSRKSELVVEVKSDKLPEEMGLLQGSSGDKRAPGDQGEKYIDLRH

Binder	Binding affinity [1] [nM]	further results
B1	1.56	
B2	12.5	
B3	3.12	
B4	50	
B5	50	
B6	0.19	
B7	0.39	
B8	0.39	
B9		IC50 of cell viability, GAK cells [2]: 0.297 nM; IC50 of cell viability, HMV-II cells [2]: 0.103 nM; IC50 of cell viability, SK-MEL-2 cells [2]: 0.115 nM
B10	0.39	
